Assay results as given in PMC4722120, “Overexpression of a Stress-Responsive NAC Transcription Factor Gene ONAC022 Improves Drought and Salt Tolerance in Rice”.

Legend:
GST-ONAC022 [1] = molecular target: T1, GST-ONAC022 (Oryza sativa (rice), UniProt Q10S65 1-316); assay: EMSA; 10 uL with 5x EMSA buffer (Beyotime chemiluminescent EMSA kit), 2 ug protein, 1 uL biotin probe; competitor preincubated 20 min; 8% native PAGE; salt, pH and temperature not stated; details: protein: recombinant; tags: N-terminal GST (pGEX-6p-1); chain copies: 2; blunt
T1 sequence: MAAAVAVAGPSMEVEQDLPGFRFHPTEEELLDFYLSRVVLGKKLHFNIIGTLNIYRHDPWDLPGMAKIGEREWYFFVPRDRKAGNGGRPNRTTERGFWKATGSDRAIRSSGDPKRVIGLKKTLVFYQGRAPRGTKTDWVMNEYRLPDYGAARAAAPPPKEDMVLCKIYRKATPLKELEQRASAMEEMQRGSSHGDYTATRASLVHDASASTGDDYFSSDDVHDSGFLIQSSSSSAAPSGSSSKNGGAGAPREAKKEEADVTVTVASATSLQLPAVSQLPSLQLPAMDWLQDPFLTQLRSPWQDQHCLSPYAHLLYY

GST-ONAC022 [2] = molecular target: T1, GST-ONAC022; assay: EMSA; self-competition by 200x unlabeled wNACRS attenuates the shift; 10 uL with 5x EMSA buffer (Beyotime chemiluminescent EMSA kit), 2 ug protein, 1 uL biotin probe; competitor preincubated 20 min; 8% native PAGE; salt, pH and temperature not stated; details: protein: recombinant; tags: N-terminal GST (pGEX-6p-1); chain copies: 2; blunt

B1: mNACRS (dsDNA)
DNA 1: ATCGAAAAAAGAGAAAAGAGAAAATTTT
DNA 2: AAAATTTTCTCTTTTCTCTTTTTTCGAT
GST-ONAC022 [1]
  binding result: no binding

B2: wNACRS (dsDNA)
DNA 1: ATCGCATGTGGAGCACGGAGCACGTTTT
DNA 2: AAAACGTGCTCCGTGCTCCACATGCGAT
GST-ONAC022 [2]
  binding result: binds
